Assay results: patent publication US20150203577A1 (Chugai, published 2015)

T1: mouse FcγRII (mouse, UniProt P08101 30-210)
T1 construct: Extracellular domain with C-terminal His tag; also called mFcγRII; mFcgRII
T1 sequence: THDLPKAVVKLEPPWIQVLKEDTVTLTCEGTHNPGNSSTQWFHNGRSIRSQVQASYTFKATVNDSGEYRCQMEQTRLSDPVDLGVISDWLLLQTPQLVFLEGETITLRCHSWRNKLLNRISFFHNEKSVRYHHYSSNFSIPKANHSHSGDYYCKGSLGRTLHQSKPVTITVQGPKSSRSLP

T2: mouse FcγRIII (mouse, UniProt P08508 31-215)
T2 construct: Extracellular domain with C-terminal His tag; also called mFcγRIII; mFcgRIII
T2 chain: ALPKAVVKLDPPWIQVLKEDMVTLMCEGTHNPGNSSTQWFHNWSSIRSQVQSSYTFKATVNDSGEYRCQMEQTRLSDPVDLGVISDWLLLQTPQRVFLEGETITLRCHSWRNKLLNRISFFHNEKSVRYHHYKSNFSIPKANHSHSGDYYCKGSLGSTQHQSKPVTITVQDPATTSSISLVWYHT


Tests used:
mouse FcγRII [1] = molecular target: T1, mouse FcγRII; test: SPR (Biacore T200); KD of H237-MB630/MRAL-k0 / KD of variant
Source text: (§1) The antibody H chain variable region used was the variable region H237 (SEQ ID NO: 1) of the H chain VH3-IgG1 of the anti-IL-6 receptor antibody Fv4-IgG1 described in WO2009/125825. The antibody L chain commonly used was the L chain MRAL-k0 (SEQ ID NO: 2) of the anti-IL-6 receptor antibody tocilizumab. […] These variants were expressed and purified by the method of Reference Example 1 and evaluated for their binding to mFcγRII and mFcγRIII by the method of Reference Example 2 using Biacore T200.
(§2) Each altered antibody was analyzed for its interaction with each Fcγ receptor prepared above using Biacore T100 (GE Healthcare Japan Corp.), Biacore T200 (GE Healthcare Japan Corp.), Biacore A100, or Biacore 4000. The running buffer used was HBS-EP+ (GE Healthcare Japan Corp.). The assay temperature was set to 25° C. The sensor chips used were chips prepared by immobilizing Protein L (ACTIGEN or BioVision) onto Series S Sensor Chip CM5 (GE Healthcare Japan Corp.) or Series S Sensor Chip CM4 (GE Healthcare Japan Corp.) by the amine coupling method.
(§3) In order to calculate the KD value of each altered antibody for FcγR, kinetic analysis was conducted according to the following method: first, the antibody of interest was captured onto any of these chips and allowed to interact with mFcγR diluted with a running buffer. For the obtained sensorgram, the assay results were globally fit into the 1:1 Langmuir binding model using Biacore Evaluation Software to calculate an association rate constant ka (L/mol/s) and a dissociation rate constant kd (1/s). From these values, the dissociation constant KD (mol/L) was calculated.

mouse FcγRIII [2] = molecular target: T2, mouse FcγRIII; test: as above
Source text: as §1, §2, §3

mouse FcγRII [3] = molecular target: T1, mouse FcγRII; test: SPR (Biacore T200); KD of H237-mIgG1/MRAL-k0 / KD of variant
Source text: as §1, §2

mouse FcγRIII [4] = molecular target: T2, mouse FcγRIII; test: as above
Source text: as §1, §2

Row | Relative mFcγRII-binding activity (MB630 = 1) (mouse FcγRII [1]) | Relative mFcγRIII-binding activity (MB630 = 1) (mouse FcγRIII [2]) | relative mFcγRII-binding activity (mIgG1 = 1) (mouse FcγRII [3]) | relative mFcγRIII-binding activity (mIgG1 = 1) (mouse FcγRIII [4]) | Binder
1 | 0.34 fold | 0.34 fold | 5.7 fold | 0.07 fold | MB753 (antibody, mouse IgG1, kappa, CH name; VH H237 + CH, L chain MRAL-k0; copies: 2 + 2) heavy: QVQLQESGPGLVKPSETLSLTCAVSGHSISHDHAWSWVRQPPGEGLEWIGFISYSGITNYNPSLQGRVTISRDNSKNTLYLQMNSLRAEDTAVYYCARSLARTTAMDYWGEGTLVTVSSAKTTPPSVYPLAPGSAAQTNSMVTLGCLVKGYFPEPVTVTWNSGSLSSGVHTFPAVLQSDLYTLSSSVTVPSSTWPSETVTCNVAHPASSTKVDKKIVPRDCGCKPCICEPNEVELVFIFPPKPKDVLTITLTPKVTCVVVDISKDDPEVQFSWFVDDVEVHTAQTQPREEQFNMTFRSVSELPIMHQDWLNGKEFKCRVNSAAFPAPIEKTISKTKGRPKAPQVYTIPPPKEQMAKDKVSLTCMITDFFPEDITVEWQWNGQPAENYKNTQPIMDTDGSYFVYSKLNVQKSNWEAGNTFTCSVLHEGLHNHHTEKSLSHSPGK light: not shown
2 | 0.46 fold | 0.45 fold | 7.6 fold | 0.09 fold | MB757 (antibody, mouse IgG1, kappa, CH name; VH H237 + CH, L chain MRAL-k0; copies: 2 + 2) heavy: QVQLQESGPGLVKPSETLSLTCAVSGHSISHDHAWSWVRQPPGEGLEWIGFISYSGITNYNPSLQGRVTISRDNSKNTLYLQMNSLRAEDTAVYYCARSLARTTAMDYWGEGTLVTVSSAKTTPPSVYPLAPGSAAQTNSMVTLGCLVKGYFPEPVTVTWNSGSLSSGVHTFPAVLQSDLYTLSSSVTVPSSTWPSETVTCNVAHPASSTKVDKKIVPRDCGCKPCICEPNEVELVFIFPPKPKDVLTITLTPKVTCVVVDISKDDPEVQFSWFVDDVEVHTAQTQPREEQFNMTFRSVSELPIMHQDWLNGKEFKCRVDSAAFPAPIEKTISKTKGRPKAPQVYTIPPPKEQMAKDKVSLTCMITDFFPEDITVEWQWNGQPAENYKNTQPIMDTDGSYFVYSKLNVQKSNWEAGNTFTCSVLHEGLHNHHTEKSLSHSPGK light: not shown
3 | 0.45 fold | 0.58 fold | 7.6 fold | 0.11 fold | MB755 (antibody, mouse IgG1, kappa, CH name; VH H237 + CH, L chain MRAL-k0; copies: 2 + 2) heavy: QVQLQESGPGLVKPSETLSLTCAVSGHSISHDHAWSWVRQPPGEGLEWIGFISYSGITNYNPSLQGRVTISRDNSKNTLYLQMNSLRAEDTAVYYCARSLARTTAMDYWGEGTLVTVSSAKTTPPSVYPLAPGSAAQTNSMVTLGCLVKGYFPEPVTVTWNSGSLSSGVHTFPAVLQSDLYTLSSSVTVPSSTWPSETVTCNVAHPASSTKVDKKIVPRDCGCKPCICEPNEVELVFIFPPKPKDVLTITLTPKVTCVVVDISKDDPEVQFSWFVDDVEVHTAQTQPREEQFNLTFRSVSELPIMHQDWLNGKEFKCRVDSAAFPAPIEKTISKTKGRPKAPQVYTIPPPKEQMAKDKVSLTCMITDFFPEDITVEWQWNGQPAENYKNTQPIMDTDGSYFVYSKLNVQKSNWEAGNTFTCSVLHEGLHNHHTEKSLSHSPGK light: not shown
4 | 1.26 fold | 1.28 fold | 21 fold | 0.25 fold | MB754 (antibody, mouse IgG1, kappa, CH name; VH H237 + CH, L chain MRAL-k0; copies: 2 + 2) heavy: QVQLQESGPGLVKPSETLSLTCAVSGHSISHDHAWSWVRQPPGEGLEWIGFISYSGITNYNPSLQGRVTISRDNSKNTLYLQMNSLRAEDTAVYYCARSLARTTAMDYWGEGTLVTVSSAKTTPPSVYPLAPGSAAQTNSMVTLGCLVKGYFPEPVTVTWNSGSLSSGVHTFPAVLQSDLYTLSSSVTVPSSTWPSETVTCNVAHPASSTKVDKKIVPRDCGCKPCICEPNEVELVFIFPPKPKDVLTITLTPKVTCVVVDISKDDPEVQFSWFVDDVEVHTAQTQPREEQFNSTFRSVSELPIMHQDWLNGKEFKCRVDSAAFPAPIEKTISKTKGRPKAPQVYTIPPPKEQMAKDKVSLTCMITDFFPEDITVEWQWNGQPAENYKNTQPIMDTDGSYFVYSKLNVQKSNWEAGNTFTCSVLHEGLHNHHTEKSLSHSPGK light: not shown
5 | 0.85 fold | 1.42 fold | 14.1 fold | 0.28 fold | MB760 (antibody, mouse IgG1, kappa, CH name; VH H237 + CH, L chain MRAL-k0; copies: 2 + 2) heavy: QVQLQESGPGLVKPSETLSLTCAVSGHSISHDHAWSWVRQPPGEGLEWIGFISYSGITNYNPSLQGRVTISRDNSKNTLYLQMNSLRAEDTAVYYCARSLARTTAMDYWGEGTLVTVSSAKTTPPSVYPLAPGSAAQTNSMVTLGCLVKGYFPEPVTVTWNSGSLSSGVHTFPAVLQSDLYTLSSSVTVPSSTWPSETVTCNVAHPASSTKVDKKIVPRDCGCKPCICEPNEVELVFIFPPKPKDVLTITLTPKVTCVVVDISKDDPEVQFSWFVDDVEVHTAQTQPREEQFNLTFRSVSELPIMHQDWLNGKEFKCRVDSAAFPAPIERTISKTKGRPKAPQVYTIPPPKEQMAKDKVSLTCMITDFFPEDITVEWQWNGQPAENYKNTQPIMDTDGSYFVYSKLNVQKSNWEAGNTFTCSVLHEGLHNHHTEKSLSHSPGK light: not shown
6 | 0.59 fold | 0.69 fold | 9.8 fold | 0.13 fold | MB758 (antibody, mouse IgG1, kappa, CH name; VH H237 + CH, L chain MRAL-k0; copies: 2 + 2) heavy: QVQLQESGPGLVKPSETLSLTCAVSGHSISHDHAWSWVRQPPGEGLEWIGFISYSGITNYNPSLQGRVTISRDNSKNTLYLQMNSLRAEDTAVYYCARSLARTTAMDYWGEGTLVTVSSAKTTPPSVYPLAPGSAAQTNSMVTLGCLVKGYFPEPVTVTWNSGSLSSGVHTFPAVLQSDLYTLSSSVTVPSSTWPSETVTCNVAHPASSTKVDKKIVPRDCGCKPCICEPNEVELVFIFPPKPKDVLTITLTPKVTCVVVDISKDDPEVQFSWFVDDVEVHTAQTQPREEQFNMTFRSVSELPIMHQDWLNGKEFKCRVNSAAFPAPIERTISKTKGRPKAPQVYTIPPPKEQMAKDKVSLTCMITDFFPEDITVEWQWNGQPAENYKNTQPIMDTDGSYFVYSKLNVQKSNWEAGNTFTCSVLHEGLHNHHTEKSLSHSPGK light: not shown
7 | 0.64 fold | 1.09 fold | 10.6 fold | 0.21 fold | MB756 (antibody, mouse IgG1, kappa, CH name; VH H237 + CH, L chain MRAL-k0; copies: 2 + 2) heavy: QVQLQESGPGLVKPSETLSLTCAVSGHSISHDHAWSWVRQPPGEGLEWIGFISYSGITNYNPSLQGRVTISRDNSKNTLYLQMNSLRAEDTAVYYCARSLARTTAMDYWGEGTLVTVSSAKTTPPSVYPLAPGSAAQTNSMVTLGCLVKGYFPEPVTVTWNSGSLSSGVHTFPAVLQSDLYTLSSSVTVPSSTWPSETVTCNVAHPASSTKVDKKIVPRDCGCKPCICEPNEVELVFIFPPKPKDVLTITLTPKVTCVVVDISKDDPEVQFSWFVDDVEVHTAQTQPREEQFNLTFRSVSELPIMHQDWLNGKEFKCRVNSAAFPAPIERTISKTKGRPKAPQVYTIPPPKEQMAKDKVSLTCMITDFFPEDITVEWQWNGQPAENYKNTQPIMDTDGSYFVYSKLNVQKSNWEAGNTFTCSVLHEGLHNHHTEKSLSHSPGK light: not shown
8 | 2.03 fold | 2.25 fold | 33.8 fold | 0.44 fold | MB759 (antibody, mouse IgG1, kappa, CH name; VH H237 + CH, L chain MRAL-k0; copies: 2 + 2) heavy: QVQLQESGPGLVKPSETLSLTCAVSGHSISHDHAWSWVRQPPGEGLEWIGFISYSGITNYNPSLQGRVTISRDNSKNTLYLQMNSLRAEDTAVYYCARSLARTTAMDYWGEGTLVTVSSAKTTPPSVYPLAPGSAAQTNSMVTLGCLVKGYFPEPVTVTWNSGSLSSGVHTFPAVLQSDLYTLSSSVTVPSSTWPSETVTCNVAHPASSTKVDKKIVPRDCGCKPCICEPNEVELVFIFPPKPKDVLTITLTPKVTCVVVDISKDDPEVQFSWFVDDVEVHTAQTQPREEQFNSTFRSVSELPIMHQDWLNGKEFKCRVDSAAFPAPIERTISKTKGRPKAPQVYTIPPPKEQMAKDKVSLTCMITDFFPEDITVEWQWNGQPAENYKNTQPIMDTDGSYFVYSKLNVQKSNWEAGNTFTCSVLHEGLHNHHTEKSLSHSPGK light: not shown
